# Experimental data: the supplement of paper PMC10567573
# B1: GMCL1 (parent)
# chain: RPDTGDDAAGHGFCYCAGSHKRKR
# B2: CDKN1A (parent)
# chain: RRQTSMTDFYHSKRRLIFSKRKP
# Variants of: B1
# Assay: protein stability index of a GFP-peptide fusion (GPS, HEK-293T) (PSI 1-6); higher = more stable
# Conditions: c terminus: a fixed tail appended
# 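Also: lentivirally expressed fusions sorted by FACS into six bins by GFP to DsRed ratio, PSI derived from sequencing read proportions per bin multiplied by bin number.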
row,Variant,protein stability index
1,RPDTGDDAAGHGFCYCAGSHKRGR,2.9
2,RPDTGDDAAGHGFCYCAGSHKRER,2.94
3,RPDTGDDAAGHGFCYCAGSHKRWR,1.95
4,RPDTGDDAAGHGFCYCAGSHKRRR,2.37
5,RPDTGDDAAGHGFCYCAGSHKRCR,3.71
6,RPDTGDDAAGHGFCYCAGSHKRIR,3.04
7,RPDTGDDAAGHGFCYCAGSHKRAR,2.2
8,RPDTGDDAAGHGFCYCAGSHKRSR,3.12
9,RPDTGDDAAGHGFCYCAGSHKRMR,2.32
10,RPDTGDDAAGHGFCYCAGSHKRTR,2.18
11,RPDTGDDAAGHGFCYCAGSHKRNR,3.03
12,RPDTGDDAAGHGFCYCAGSHKRPR,2.84
13,RPDTGDDAAGHGFCYCAGSHKRQR,2.92
14,RPDTGDDAAGHGFCYCAGSHKRHR,3.1
15,RPDTGDDAAGHGFCYCAGSHKRLR,2.16
16,RPDTGDDAAGHGFCYCAGSHKRVR,2.33
17,RPDTGDDAAGHGFCYCAGSHKRYR,2.22
18,RPDTGDDAAGHGFCYCAGSHKRDR,3.33
19,RPDTGDDAAGHGFCYCAGSHKRFR,1.9
20,RPDTGDDAAGHGFCYCAGSHKWKR,2.6
21,RPDTGDDAAGHGFCYCAGSHKSKR,2.77
22,RPDTGDDAAGHGFCYCAGSHKMKR,2.12
23,RPDTGDDAAGHGFCYCAGSHKYKR,2.01
24,RPDTGDDAAGHGFCYCAGSHKKKR,3.08
25,RPDTGDDAAGHGFCYCAGSHKTKR,2.64

row,Variant,protein stability index
1,RPDTGDDAAGHGFCYCAGSHKQKR,2.66
2,RPDTGDDAAGHGFCYCAGSHKAKR,2.76
3,RPDTGDDAAGHGFCYCAGSHKGKR,2.43
4,RPDTGDDAAGHGFCYCAGSHKCKR,3.59
5,RPDTGDDAAGHGFCYCAGSHKLKR,2.57
6,RPDTGDDAAGHGFCYCAGSHKPKR,2.79
7,RPDTGDDAAGHGFCYCAGSHKVKR,2.65
8,RPDTGDDAAGHGFCYCAGSHKNKR,2.62
9,RPDTGDDAAGHGFCYCAGSHKDKR,3.55
10,RPDTGDDAAGHGFCYCAGSHKFKR,1.96
11,RPDTGDDAAGHGFCYCAGSHKIKR,3
12,RPDTGDDAAGHGFCYCAGSHKHKR,2.56
13,RPDTGDDAAGHGFCYCAGSHKEKR,3.56
14,RPDTGDDAAGHGFCYCAGSHRRKR,2.67
15,RPDTGDDAAGHGFCYCAGSHWRKR,2.29
16,RPDTGDDAAGHGFCYCAGSHHRKR,2.35
17,RPDTGDDAAGHGFCYCAGSHDRKR,3.15
18,RPDTGDDAAGHGFCYCAGSHTRKR,2.74
19,RPDTGDDAAGHGFCYCAGSHSRKR,2.34
20,RPDTGDDAAGHGFCYCAGSHFRKR,2.52
21,RPDTGDDAAGHGFCYCAGSHQRKR,2.79
22,RPDTGDDAAGHGFCYCAGSHIRKR,2.01
23,RPDTGDDAAGHGFCYCAGSHERKR,2.57
24,RPDTGDDAAGHGFCYCAGSHLRKR,2.69
25,RPDTGDDAAGHGFCYCAGSHGRKR,2.39

row,Variant,protein stability index
1,RPDTGDDAAGHGFCYCAGSHNRKR,2.83
2,RPDTGDDAAGHGFCYCAGSHPRKR,3.03
3,RPDTGDDAAGHGFCYCAGSHCRKR,3.23
4,RPDTGDDAAGHGFCYCAGSHVRKR,2.79
5,RPDTGDDAAGHGFCYCAGSHYRKR,2.11
6,RPDTGDDAAGHGFCYCAGSHARKR,3.07
7,RPDTGDDAAGHGFCYCAGSHMRKR,2.65
8,RPDTGDDAAGHGFCYCAGSHKRKQ,3.35
9,RPDTGDDAAGHGFCYCAGSHKRKV,3.38
10,RPDTGDDAAGHGFCYCAGSHKRKA,3.53
11,RPDTGDDAAGHGFCYCAGSHKRKW,2.87
12,RPDTGDDAAGHGFCYCAGSHKRKF,3.18
13,RPDTGDDAAGHGFCYCAGSHKRKD,4.3
14,RPDTGDDAAGHGFCYCAGSHKRKN,3.84
15,RPDTGDDAAGHGFCYCAGSHKRKG,3.4
16,RPDTGDDAAGHGFCYCAGSHKRKK,3.65
17,RPDTGDDAAGHGFCYCAGSHKRKY,3.75
18,RPDTGDDAAGHGFCYCAGSHKRKC,4.32
19,RPDTGDDAAGHGFCYCAGSHKRKM,2.77
20,RPDTGDDAAGHGFCYCAGSHKRKI,3.33
21,RPDTGDDAAGHGFCYCAGSHKRKH,4.13
22,RPDTGDDAAGHGFCYCAGSHKRKE,3.64
23,RPDTGDDAAGHGFCYCAGSHKRKP,3.94
24,RPDTGDDAAGHGFCYCAGSHKRKL,2.66
25,RPDTGDDAAGHGFCYCAGSHKRKT,3.04

row,Variant,protein stability index
1,RPDTGDDAAGHGFCYCAGSHKRKS,3.47
2,RPDTGDDAAGHGFCYCYGSHKRKR,3.25
3,RPDTGDDAAGHGFCYCNGSHKRKR,3.61
4,RPDTGDDAAGHGFCYCSGSHKRKR,2.77
5,RPDTGDDAAGHGFCYCLGSHKRKR,2.59
6,RPDTGDDAAGHGFCYCMGSHKRKR,2.99
7,RPDTGDDAAGHGFCYCKGSHKRKR,2.82
8,RPDTGDDAAGHGFCYCIGSHKRKR,2.97
9,RPDTGDDAAGHGFCYCTGSHKRKR,3.13
10,RPDTGDDAAGHGFCYCHGSHKRKR,2.29
11,RPDTGDDAAGHGFCYCWGSHKRKR,3.01
12,RPDTGDDAAGHGFCYCVGSHKRKR,2.56
13,RPDTGDDAAGHGFCYCQGSHKRKR,3.02
14,RPDTGDDAAGHGFCYCPGSHKRKR,3.7
15,RPDTGDDAAGHGFCYCRGSHKRKR,2.9
16,RPDTGDDAAGHGFCYCAGSLKRKR,3.18
17,RPDTGDDAAGHGFCYCAGSYKRKR,3.12
18,RPDTGDDAAGHGFCYCAGSVKRKR,2.79
19,RPDTGDDAAGHGFCYCAGSGKRKR,3.41
20,RPDTGDDAAGHGFCYCAGSAKRKR,3.15
21,RPDTGDDAAGHGFCYCAGSPKRKR,2.85
22,RPDTGDDAAGHGFCYCAGSCKRKR,3.26
23,RPDTGDDAAGHGFCYCAGSFKRKR,3.24
24,RPDTGDDAAGHGFCYCAGSIKRKR,3.9
25,RPDTGDDAAGHGFCYCAGSQKRKR,3.59

row,Variant,protein stability index
1,RPDTGDDAAGHGFCYCAGSKKRKR,4.09
2,RPDTGDDAAGHGFCYCAGSNKRKR,3.04
3,RPDTGDDAAGHGFCYCAGSTKRKR,3.05
4,RPDTGDDAAGHGFCYCAGSMKRKR,3.03
5,RPDTGDDAAGHGFCYCAGSWKRKR,2.62
6,RPDTGDDAAGHGFCYCAGSSKRKR,3.95
7,RPDTGDDAAGHGFCYCAGSEKRKR,3.3
8,RPDTGDDAAGHGFCYCAGSDKRKR,3.35
9,RPDTGDDAAGHGFCYCAGSRKRKR,3.31
10,RPDTGDDAAGHGFCYCASSHKRKR,3.36
11,RPDTGDDAAGHGFCYCARSHKRKR,3.29
12,RPDTGDDAAGHGFCYCATSHKRKR,3.53
13,RPDTGDDAAGHGFCYCAHSHKRKR,2.53
14,RPDTGDDAAGHGFCYCANSHKRKR,2.85
15,RPDTGDDAAGHGFCYCAISHKRKR,2.9
16,RPDTGDDAAGHGFCYCAASHKRKR,3.24
17,RPDTGDDAAGHGFCYCAQSHKRKR,3.12
18,RPDTGDDAAGHGFCYCAESHKRKR,3.6
19,RPDTGDDAAGHGFCYCAKSHKRKR,3.58
20,RPDTGDDAAGHGFCYCALSHKRKR,2.66
21,RPDTGDDAAGHGFCYCAPSHKRKR,3.53
22,RPDTGDDAAGHGFCYCAVSHKRKR,2.75
23,RPDTGDDAAGHGFCYCAFSHKRKR,2.7
24,RPDTGDDAAGHGFCYCAYSHKRKR,2.98
25,RPDTGDDAAGHGFCYCACSHKRKR,2.77

row,Variant,protein stability index
1,RPDTGDDAAGHGFCYCAWSHKRKR,2.09
2,RPDTGDDAAGHGFCYCAMSHKRKR,2.71
3,RPDTGDDAAGHGFCYCADSHKRKR,2.84
4,RPDTGDDAAGHGFCYCAGQHKRKR,3.16
5,RPDTGDDAAGHGFCYCAGKHKRKR,3.78
6,RPDTGDDAAGHGFCYCAGHHKRKR,2.77
7,RPDTGDDAAGHGFCYCAGRHKRKR,3.26
8,RPDTGDDAAGHGFCYCAGLHKRKR,2.82
9,RPDTGDDAAGHGFCYCAGYHKRKR,2.53
10,RPDTGDDAAGHGFCYCAGFHKRKR,2.63
11,RPDTGDDAAGHGFCYCAGAHKRKR,3.62
12,RPDTGDDAAGHGFCYCAGNHKRKR,3.31
13,RPDTGDDAAGHGFCYCAGVHKRKR,2.72
14,RPDTGDDAAGHGFCYCAGCHKRKR,3.82
15,RPDTGDDAAGHGFCYCAGGHKRKR,3.14
16,RPDTGDDAAGHGFCYCAGEHKRKR,2.98
17,RPDTGDDAAGHGFCYCAGPHKRKR,2.45
18,RPDTGDDAAGHGFCYCAGTHKRKR,3.65
19,RPDTGDDAAGHGFCYCAGIHKRKR,2.96
20,RPDTGDDAAGHGFCYCAGWHKRKR,2.45
21,RPDTGDDAAGHGFCYCAGDHKRKR,2.86
22,RPDTGDDAAGHGFCYCAGMHKRKR,2.52

# Variants of: B2
# Assay: as above
# Conditions: c terminus: native
row,Variant,protein stability index
1,RRQTSMTDFYHSKRRLIFRKRKP,2.46
2,RRQTSMTDFYHSKRRLIFDKRKP,1.43
3,RRQTSMTDFYHSKRRLIFIKRKP,2.54
4,RRQTSMTDVYHSKRRLIFSKRKP,2.43
5,RRQTYMTDFYHSKRRLIFSKRKP,2.19
6,RRQTVMTDFYHSKRRLIFSKRKP,2.27
7,RRQTMMTDFYHSKRRLIFSKRKP,2.73
8,RRQTSMTDFYHSKRRLIFSNRKP,1.03
9,RRQTSMTDFYHSKRRFIFSKRKP,3.4
10,RRQTSMTDFYHSKRRLIFSKKKP,3.61
11,RRQTSMTDFYHGKRRLIFSKRKP,2.07
12,RRQTSMTDFAHSKRRLIFSKRKP,3.44
13,RRQTSMTDFEHSKRRLIFSKRKP,2.83
14,RRQTSMTDFTHSKRRLIFSKRKP,3.41
15,RRQTSMTDFIHSKRRLIFSKRKP,2.79
16,RRQTSMTDFPHSKRRLIFSKRKP,2.22
17,RRQTSMTDFYHSKRPLIFSKRKP,2.52
18,RRQTSMTDFYHSKRILIFSKRKP,3
19,RRQTSMTDFYHSKRTLIFSKRKP,2.34
20,RRQTSMTDFYHSKRMLIFSKRKP,3.54
21,RRQTSMTDFYHSKRRLIFSKRMP,3.93

row,Variant,protein stability index
1,RRQTSMTDFYHSKMRLIFSKRKP,3.31
2,RRQTSMTDFYHSKQRLIFSKRKP,4.01
3,RRQTSMTDFYHSKNRLIFSKRKP,2.75
4,RMQTSMTDFYHSKRRLIFSKRKP,4.02
5,RIQTSMTDFYHSKRRLIFSKRKP,2.89
6,RGQTSMTDFYHSKRRLIFSKRKP,3.55
7,RRQTSNTDFYHSKRRLIFSKRKP,3.37
8,RRQTSWTDFYHSKRRLIFSKRKP,2.56
9,RRQTSYTDFYHSKRRLIFSKRKP,1.92
10,RRKTSMTDFYHSKRRLIFSKRKP,2.72
11,RRGTSMTDFYHSKRRLIFSKRKP,3.86
12,RRQTSMTDFYHSKRRLIVSKRKP,2.3
13,RRQCSMTDFYHSKRRLIFSKRKP,2.33
14,RRQASMTDFYHSKRRLIFSKRKP,2.23
15,RRQTSMTDFYHSKRRLIFSKRKA,1.85
16,RRQTSMTDFYHSKRRLIFSKRKF,2.76
17,RRQTSMTDFYHSKRRLIFSKRKM,2.46
18,RRQTSMSDFYHSKRRLIFSKRKP,2.44
19,MRQTSMTDFYHSKRRLIFSKRKP,2.04
20,RRQTSMTSFYHSKRRLIFSKRKP,2.95
21,RRQTSMTFFYHSKRRLIFSKRKP,3.24
